According to patent US10351618B2, “UTI fusion proteins” (Takeda Pharmaceutical Company Limited, priority 2014, dated 2019):

Assays:
chymotrypsin = assay: Protease inhibition at Reaction Biology Corporation: chymotrypsin; type: biochemical; details: FIG. 6, FIG. 7
Method: (§1) Measurement of the inhibition of other proteases by UTI-Fc1 was also measured at Reaction Biology Corporation (Malvern, Pa.). […] FIG. 7 lists the inhibitory constants of UTI-Fc1 for a variety of proteases.

plasmin = plasmin (Homo sapiens, UniProt P00747); assay: Protease inhibition at Reaction Biology Corporation: plasmin; type: biochemical; details: FIG. 7
Method: as §1

caspase-1 = molecular target: T1, caspase-1 (Homo sapiens, UniProt P29466); assay: Protease inhibition at Reaction Biology Corporation: caspase-1; type: biochemical; details: FIG. 7
T1 sequence (P29466 120-404): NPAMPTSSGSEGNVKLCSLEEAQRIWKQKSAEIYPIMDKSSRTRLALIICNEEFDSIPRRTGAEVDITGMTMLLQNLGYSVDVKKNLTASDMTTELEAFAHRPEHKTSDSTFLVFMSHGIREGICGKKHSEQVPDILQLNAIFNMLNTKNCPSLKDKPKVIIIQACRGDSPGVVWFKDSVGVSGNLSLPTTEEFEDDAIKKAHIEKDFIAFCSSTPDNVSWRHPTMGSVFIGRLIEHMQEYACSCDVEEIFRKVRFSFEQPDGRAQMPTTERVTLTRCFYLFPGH
Method: as §1

cathepsin C = cathepsin C (Homo sapiens, UniProt P53634); assay: Protease inhibition at Reaction Biology Corporation: cathepsin C; type: biochemical; details: FIG. 7
Method: as §1

papain = molecular target: T2, papain (Carica papaya, UniProt P00784); assay: Protease inhibition at Reaction Biology Corporation: papain; type: biochemical; details: FIG. 7
T2 sequence (P00784 134-345): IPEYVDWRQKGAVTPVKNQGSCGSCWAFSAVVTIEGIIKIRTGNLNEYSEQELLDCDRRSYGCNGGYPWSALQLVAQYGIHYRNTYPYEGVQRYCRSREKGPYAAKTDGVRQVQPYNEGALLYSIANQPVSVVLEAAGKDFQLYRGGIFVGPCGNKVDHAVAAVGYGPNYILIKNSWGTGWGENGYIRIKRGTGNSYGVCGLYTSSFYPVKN
Method: as §1

[1] = Thermal stability by differential scanning calorimetry; type: physicochemical
Method: Assays were performed to measure the thermal and real-time stability. […] Thermal stability was measured by differential scanning calorimetry on a Microcal VP-DSC calorimeter. Samples were prepared at 1 mg/ml and buffered in 0.25 mM Tris pH7.4, 0.13M NaCl and 0.0027M KCl. Samples were heated from 25° C. to 110° C. at a rate of 200° C. per hour. UTI-Fc1 was compared to Application Publication Number CN 103044554 A, SEQ ID's 2 and 6, which comprise an IgG2 or IgG1 Fc domain respectively.

[2] = Real-time stability (SEC, A280, PAGE) in TBS pH7.4; type: physicochemical
Method: Real-time stability measurements were performed by incubating SEQ ID NO:1 (UTI-Fc1) or CN 103044554 A, SEQ IDS 2 or 6 at 2-8° C., and 40° C. for 0, 2 and 4 weeks in TBS, pH7.4 buffer. The formation of higher and lower molecular weight species was determined by size exclusion chromatography (SEC) and visualized with polyacrilamide gel electrophoresis (PAGE). The concentration of each UTI-Fc was also monitored by determination of the absorbance of the solution at 280 nm (A280), using extinction coefficients determine by the protein composition. The UTI-Fc molecules produce two, partially overlapping peaks, when analyzed by SEC. The percentage peak area in each UTI-Fc sample measured by SEC is reported in Table 9 at time=0 weeks, 2 weeks, and 4 weeks. Also shown is the percentage change in concentration measured by A280 (% A (mg/ml)) at time=2 weeks and 4 weeks. The initial TO concentration of each sample was UTI-Fc1=33.5 mg/mL, CN 103044554 A SEQ ID 2=8.5 mg/mL, and CN 103044554 A SEQ ID 6=5.6 mg/mL. A variability of 3% is typical for SEC and 15% for individual UV measurements.

C5a = assay: LPS induced C5a in C3H mice (complement inhibition in vivo); design: species or system C3h/HeJ mice; details: 4 hours post LPS dose, p<0.05, FIG. 10
Method: UTI-Fc1 (SEQ ID NO:1) affects on the complement system were measured in vivo. Female, C3h/HeJ mice were purchased from Jackson Laboratories. Animals are dosed according to the experimental design Table 10. Animals were injected i.p. (100 ul/mouse) 15 minutes post dose with LPS at time zero. Animals were euthanized at 2 and 4 hours post LPS injection by CO2 overdose and blood was collected by cardiac puncture. Blood was transferred to serum separator microtubes and allowed to clot at room temperature for 30 minutes. Subsequently, microtubes were centrifuged at 12,000 rpm for 5 minutes and serum was removed and aliquoted to a 96 well plate. Rosmarinic acid was used as a positive control and used as 3 mg/ml in saline. The 96 well plate was frozen at −20° C. Serum samples were analyzed for C5a content by duoset. Statistical significance was determined using Prism graphing software and effects were considering statistically significant if p<0.05.

Human pancreatic trypsin = molecular target: T3, Human pancreatic trypsin (Homo sapiens, UniProt P07477); assay: In vitro enzymatic assay for trypsin inhibition; type: biochemical; details: human pancreatic trypsin 1.5 nM, 15 min pre-incubation, FIG. 5
T3 construct: purchased Athens Research & Technology, Inc
Method: Solutions of UTI-Fc1 at various concentrations 200 nM final concentration) are prepared in 50 mM HEPES, 150 mM NaCl, 20 mM CaC12 and 0.01% Brij L23, pH 7.4. Activity assays were performed in Greiner 384-well small volume plates. All steps were conducted at ambient temperature.
Human pancreatic trypsin (1.5 nM final concentration) (Athens Research & Technology, Inc) was added to the dilutions then pre-incubated with the test UTI-Fc for 15 minutes. Next, the reaction was initiated with 100 μM (final) of substrate N[…]-Benzoyl-L-arginine-7-amido-4-methylcoumarin hydrochloride SIGMA B7260-25 MG. The reaction mixture total volume was 20 µl. Trypsin activity was determined via fluorescence. For example, the fluorescence intensity was determined in kinetic mode over a window of 30 to 60 minutes on a BMG PHERAstar FS or PHERAstar plus using an excitation wavelength of 370 nm and an emission wavelength of 470 nm. Trypsin activity was linearly proportional to the change in fluorescence observed (final−initial). […]
Where: Fi was the observed fluorescence at a given concentration of test UTI-Fc.
Fp was the observed fluorescence of a positive control i.e., the average value of 2 to 6 assays in the absence of Trypsin.
Fn was the observed fluorescence of a negative control i.e., the average value of 2 to 6 assays of Trypsin in the presence of vehicle alone. […]

[3] = test system: trypsin-induced IL-6 production in BEAS2B cells; assay: Inhibition of trypsin-induced IL-6 release in BEAS2B cells; type: cell-based, human; details: 100 nM trypsin, 8 hours, FIG. 8
Method: UTI-Fc1 inhibition of cytokine release was measure in a cell-based assay. BEAS2B cells were seeded at the density of 20,000 cells/well in 96 well plate and cultured using complete BEGM Bullet Kit (Lonza) in CO2 incubator. After 24 hours, the culture media were replaced with plain DMEM for starvation and cells were cultured overnight. Then cells were incubated with fresh plain DMEM containing 100 nM trypsin with various concentrations of human urine UTI or recombinant UTI-Fc1 proteins. After 8 hours, culture supernatants were collected and IL-6 protein levels were assessed using human IL-6 DuoSet (R&D Systems).

[4] = rodents and humans (Fries et al 2000); cited from earlier work
Factor Xa = Factor Xa (Homo sapiens, UniProt P00742); details: full-length UTI (Morishita et al. 1994); cited from earlier work
plasma kallikrien = plasma kallikrien (Homo sapiens, UniProt P03952); details: full-length UTI (Morishita et al. 1994); cited from earlier work
[5] = 1 mg/ml, Tris pH7.4, 25° C. to 110° C. at 200° C. per hour

cathepsin C, sequence (P53634 25-463, species assumed): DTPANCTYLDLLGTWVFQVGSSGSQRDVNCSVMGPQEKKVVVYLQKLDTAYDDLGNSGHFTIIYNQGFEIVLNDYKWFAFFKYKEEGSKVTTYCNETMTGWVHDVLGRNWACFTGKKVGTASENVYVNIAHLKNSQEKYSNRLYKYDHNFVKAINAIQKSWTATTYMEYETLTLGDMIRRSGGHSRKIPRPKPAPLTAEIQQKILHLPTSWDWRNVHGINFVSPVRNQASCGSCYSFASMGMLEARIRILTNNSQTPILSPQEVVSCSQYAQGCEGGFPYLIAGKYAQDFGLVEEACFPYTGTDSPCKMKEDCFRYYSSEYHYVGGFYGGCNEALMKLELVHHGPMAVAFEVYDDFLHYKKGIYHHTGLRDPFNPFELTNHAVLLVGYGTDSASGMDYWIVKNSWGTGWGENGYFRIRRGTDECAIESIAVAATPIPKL
plasma kallikrien, sequence (P03952 20-638): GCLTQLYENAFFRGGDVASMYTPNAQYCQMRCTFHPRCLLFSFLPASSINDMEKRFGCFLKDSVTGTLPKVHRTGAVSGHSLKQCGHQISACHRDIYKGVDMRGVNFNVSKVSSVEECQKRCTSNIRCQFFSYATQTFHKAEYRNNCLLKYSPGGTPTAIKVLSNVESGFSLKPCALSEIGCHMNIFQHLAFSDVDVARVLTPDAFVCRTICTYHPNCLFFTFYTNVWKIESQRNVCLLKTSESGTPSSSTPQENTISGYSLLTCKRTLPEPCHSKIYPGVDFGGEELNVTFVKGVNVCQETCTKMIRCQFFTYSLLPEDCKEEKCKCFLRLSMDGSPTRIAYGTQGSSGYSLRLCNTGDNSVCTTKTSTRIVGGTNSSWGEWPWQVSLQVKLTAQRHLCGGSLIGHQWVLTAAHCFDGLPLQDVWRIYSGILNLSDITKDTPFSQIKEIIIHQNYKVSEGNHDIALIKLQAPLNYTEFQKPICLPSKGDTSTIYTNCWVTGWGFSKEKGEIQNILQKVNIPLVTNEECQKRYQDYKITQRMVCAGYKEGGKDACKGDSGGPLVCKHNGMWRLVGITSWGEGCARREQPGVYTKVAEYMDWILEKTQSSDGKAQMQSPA
Factor Xa, sequence (P00742 235-488 limits assumed): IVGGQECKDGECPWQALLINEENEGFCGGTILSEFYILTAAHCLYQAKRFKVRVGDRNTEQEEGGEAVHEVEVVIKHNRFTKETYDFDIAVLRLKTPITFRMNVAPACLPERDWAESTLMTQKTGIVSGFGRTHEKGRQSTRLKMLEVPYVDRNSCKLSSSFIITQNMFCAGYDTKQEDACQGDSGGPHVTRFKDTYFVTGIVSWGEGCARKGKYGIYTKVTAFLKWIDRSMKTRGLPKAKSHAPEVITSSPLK
Factor Xa, sequence (P00742 41-179 partner limits assumed): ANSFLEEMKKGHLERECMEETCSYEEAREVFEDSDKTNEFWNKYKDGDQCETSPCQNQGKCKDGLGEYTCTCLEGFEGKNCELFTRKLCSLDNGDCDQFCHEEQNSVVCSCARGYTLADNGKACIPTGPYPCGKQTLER
plasmin, sequence (P00747 581-810 limits assumed, species assumed): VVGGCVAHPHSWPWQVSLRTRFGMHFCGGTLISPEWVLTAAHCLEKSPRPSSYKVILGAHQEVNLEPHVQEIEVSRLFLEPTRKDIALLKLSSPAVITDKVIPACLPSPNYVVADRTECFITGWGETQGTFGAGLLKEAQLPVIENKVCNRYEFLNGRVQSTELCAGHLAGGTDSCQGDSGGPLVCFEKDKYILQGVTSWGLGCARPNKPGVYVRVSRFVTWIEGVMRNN
plasmin, sequence (P00747 97-580 partner limits assumed, species assumed): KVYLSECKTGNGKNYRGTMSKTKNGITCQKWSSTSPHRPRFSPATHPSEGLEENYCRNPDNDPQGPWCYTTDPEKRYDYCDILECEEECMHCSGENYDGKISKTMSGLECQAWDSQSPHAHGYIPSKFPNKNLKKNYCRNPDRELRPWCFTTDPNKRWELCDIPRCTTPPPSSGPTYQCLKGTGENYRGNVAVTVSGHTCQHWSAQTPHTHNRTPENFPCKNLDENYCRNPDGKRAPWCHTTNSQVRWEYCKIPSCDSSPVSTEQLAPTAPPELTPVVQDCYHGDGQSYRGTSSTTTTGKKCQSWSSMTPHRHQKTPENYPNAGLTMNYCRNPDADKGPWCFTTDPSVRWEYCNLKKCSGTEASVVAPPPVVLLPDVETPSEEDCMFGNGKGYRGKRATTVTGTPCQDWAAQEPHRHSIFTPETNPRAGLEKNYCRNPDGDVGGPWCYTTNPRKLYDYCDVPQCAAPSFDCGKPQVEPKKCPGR

For “UTI-Fc1: UTI-Fc fusion protein, human UTI domain linked to wild type IgG1 Fc, SEQ ID NO: 1”, which inhibition of chymotrypsin (chymotrypsin) is on record?
The inhibition of chymotrypsin was “moderately”.

And the inhibition of plasmin (plasmin)?
Its inhibition of plasmin is “moderately”.

What about the “inhibition of caspase-1” value (caspase-1) of the same molecule?
Its value is “weak inhibition”.

What about the “inhibition of cathepsin C” value (cathepsin C) of the same molecule?
The value was “weak inhibition”.

And the inhibition of papain (papain)?
The inhibition of papain was “weak inhibition”.

And the “thermal stability compared to the UTI fusion proteins of CN 103044554A” value [1]?
The value was “greater thermal stability”.

And the “DSC Tm1” value [1, 5]?
The value was 70.86 °C.

And the “DSC Tm2” value [1, 5]?
The value was 85.79 °C.

And the “SEC percentage peak area Peak1” value ([2]; 0 weeks)?
The value was 35.7%.

And the “SEC percentage peak area Peak2” value ([2]; 0 weeks)?
Its value is 64.3%.

And the “% Δ (mg/ml), percentage change in concentration by A280” value (“% Δ (mg/ml), percentage change” below) ([2]; 2 weeks at 2-8° C.)?
The value was 9.2%.

And the “SEC percentage peak area Peak1” value ([2]; 2 weeks at 2-8° C.)?
Its value is 36.2%.

And the “SEC percentage peak area Peak2” value ([2]; 2 weeks at 2-8° C.)?
The value was 63.8%.

What about the “% Δ (mg/ml), percentage change” value ([2]; 2 weeks at 40° C.) of the same molecule?
Its value is 0.2%.

And the “SEC percentage peak area Peak1” value ([2]; 2 weeks at 40° C.)?
Its value is 37.1%.

What about the “SEC percentage peak area Peak2” value ([2]; 2 weeks at 40° C.) of the same molecule?
The value was 62.9%.

And the “% Δ (mg/ml), percentage change” value ([2]; 4 weeks at 2-8° C.)?
The value was 1.2%.

What about the “SEC percentage peak area Peak1” value ([2]; 4 weeks at 2-8° C.) of the same molecule?
The value was 36.1%.

What about the “SEC percentage peak area Peak2” value ([2]; 4 weeks at 2-8° C.) of the same molecule?
Its value is 63.9%.

What about the “% Δ (mg/ml), percentage change” value ([2]; 4 weeks at 40° C.) of the same molecule?
The value was 11.9%.

What about the “SEC percentage peak area Peak1” value ([2]; 4 weeks at 40° C.) of the same molecule?
The value was 36.8%.

And the “SEC percentage peak area Peak2” value ([2]; 4 weeks at 40° C.)?
The value was 63.2%.

And the “serum C5a” value (C5a; 20 mg/kg iv)?
Its value is “significantly reduced”.

What about the “serum C5a” value (C5a; 50 mg/kg iv) of the same molecule?
Its value is “significantly reduced”.

What about the “serum C5a” value (C5a; 100 mg/kg iv) of the same molecule?
The value was “significantly reduced”.

B1: UTI: Urinary Trypsin Inhibitor, protease inhibitor of about 40 kD present in human urine and blood (protein)
chain: AVLPQEEEGSGGGQLVTEVTKKEDSCQLGYSAGPCMGMTSRYFYNGTSMACETFQYGGCMGNGNNFVTEKECLQTCRTVAACNLPIVRGPCRAFIQLWAFDAVKGKCVLFPYGGCQGNGNKFYSEKECREYCGVPGDGDEELLRFSN
Which results are given for B1?
IC50 (Human pancreatic trypsin): ~3 nM; IC50 of trypsin-induced IL-6 production [3]: 0.40 µg/mL; half-life [4]: 4 to 30 min; inhibition of Factor Xa (Factor Xa): does not show inhibition; inhibition of plasma kallikrien (plasma kallikrien): does not show inhibition
